1 substance from paper PMC8136821 can be followed below.

The target in this experiment is H. pylori RNase R (HpRNase R), recombinant, His-tagged (H. pylori). In words: AUC.

As a reminder, the stoichiometry N is the number of molecules, sites or subunits per partner or assembly.

Chain of H. pylori RNase R (HpRNase R), recombinant, His-tagged (H. pylori) (P56123 whole entry): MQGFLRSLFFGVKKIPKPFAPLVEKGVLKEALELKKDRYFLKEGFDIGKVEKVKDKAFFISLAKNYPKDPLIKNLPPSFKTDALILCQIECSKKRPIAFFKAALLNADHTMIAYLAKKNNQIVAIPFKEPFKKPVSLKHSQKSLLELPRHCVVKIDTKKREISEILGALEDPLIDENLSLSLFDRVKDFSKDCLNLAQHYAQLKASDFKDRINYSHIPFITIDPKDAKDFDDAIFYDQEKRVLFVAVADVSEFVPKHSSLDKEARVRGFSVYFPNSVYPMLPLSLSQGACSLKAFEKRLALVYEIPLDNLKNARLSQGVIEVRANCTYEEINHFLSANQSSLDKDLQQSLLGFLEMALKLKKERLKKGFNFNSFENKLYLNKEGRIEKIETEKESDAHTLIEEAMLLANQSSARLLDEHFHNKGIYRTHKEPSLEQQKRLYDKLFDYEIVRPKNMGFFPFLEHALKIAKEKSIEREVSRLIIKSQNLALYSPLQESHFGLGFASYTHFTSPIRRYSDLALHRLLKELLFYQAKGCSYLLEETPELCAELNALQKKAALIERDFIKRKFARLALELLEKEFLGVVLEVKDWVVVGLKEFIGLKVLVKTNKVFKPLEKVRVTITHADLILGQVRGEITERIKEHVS
Chain of RhpA DEAD-box RNA helicase of H. pylori, recombinant, His-tagged (enzyme) (B9XXL6 whole entry): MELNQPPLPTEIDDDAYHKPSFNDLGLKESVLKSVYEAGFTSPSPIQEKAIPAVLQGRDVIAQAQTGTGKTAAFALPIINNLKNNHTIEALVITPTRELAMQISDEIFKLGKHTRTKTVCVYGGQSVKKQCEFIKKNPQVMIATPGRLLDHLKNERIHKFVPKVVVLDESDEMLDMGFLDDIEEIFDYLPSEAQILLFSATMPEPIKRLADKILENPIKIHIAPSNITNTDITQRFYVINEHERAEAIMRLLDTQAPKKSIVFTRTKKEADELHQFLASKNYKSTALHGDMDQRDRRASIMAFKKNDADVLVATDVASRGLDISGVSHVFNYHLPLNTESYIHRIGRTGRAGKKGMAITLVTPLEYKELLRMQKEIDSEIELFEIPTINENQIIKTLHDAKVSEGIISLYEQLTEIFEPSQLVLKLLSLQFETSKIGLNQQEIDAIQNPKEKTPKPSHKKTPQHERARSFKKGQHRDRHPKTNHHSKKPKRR

Turning to “RhpA DEAD-box RNA helicase of H. pylori, recombinant, His-tagged (enzyme)”, the stoichiometry N was determined as 1.
